Results published in publication PMC9482650, “Quantitative fragmentomics allow affinity mapping of interactomes” (Nature Communications, 2022).
Substitutions are numbered along the chain they refer to.

Assays:
Experiment in all cases: holdup assay
Parameters in all cases: key: below the threshold = too weak to quantify, mostly under pKd 3.1 to 4
Details in all cases: plain residues with an end cap or a label only (N-terminal biotin on a linker: ado-ado)
MAGI2_3, Q86UL8 = molecular target: MAGI2_3, Q86UL8
Sequence of MAGI2_3, Q86UL8 (Q86UL8 600-682): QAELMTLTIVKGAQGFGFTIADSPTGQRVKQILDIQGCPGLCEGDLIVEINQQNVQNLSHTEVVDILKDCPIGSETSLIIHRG

FRMPD3, Q5JV73 = molecular target: FRMPD3, Q5JV73
Sequence of FRMPD3, Q5JV73 (Q5JV73 12-100): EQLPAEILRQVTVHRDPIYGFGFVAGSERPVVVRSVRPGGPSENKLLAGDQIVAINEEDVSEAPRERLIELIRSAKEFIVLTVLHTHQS

MAST2, Q6P0Q8 = molecular target: MAST2, Q6P0Q8
Sequence of MAST2, Q6P0Q8 (Q6P0Q8 1099-1202): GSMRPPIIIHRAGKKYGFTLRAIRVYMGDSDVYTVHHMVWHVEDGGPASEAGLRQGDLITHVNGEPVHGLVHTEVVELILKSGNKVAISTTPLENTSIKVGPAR

DLG2_2, Q15700 = molecular target: DLG2_2, Q15700
Sequence of DLG2_2, Q15700 (Q15700 189-283): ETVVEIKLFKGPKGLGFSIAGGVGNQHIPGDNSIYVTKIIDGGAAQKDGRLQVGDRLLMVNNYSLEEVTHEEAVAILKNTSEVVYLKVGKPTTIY

Inadl_8, Q8NI35 = molecular target: Inadl_8, Q8NI35
Sequence of Inadl_8, Q8NI35 (Q8NI35 1425-1530): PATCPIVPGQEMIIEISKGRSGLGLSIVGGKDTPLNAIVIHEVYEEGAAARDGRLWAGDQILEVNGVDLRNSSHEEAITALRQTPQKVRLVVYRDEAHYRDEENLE

ARHGEF12, Q9NZN5-2 = molecular target: ARHGEF12, Q9NZN5-2
Sequence of ARHGEF12, Q9NZN5-2 (Q9NZN5 other isoform, or with tags, fused parts or gaps): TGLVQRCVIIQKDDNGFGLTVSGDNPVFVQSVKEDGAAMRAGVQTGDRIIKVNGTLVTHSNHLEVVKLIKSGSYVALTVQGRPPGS

LIN7C, Q9NUP9 = molecular target: T1, LIN7C, Q9NUP9
T1 sequence (Q9NUP9 88-185, limits assumed, looked up): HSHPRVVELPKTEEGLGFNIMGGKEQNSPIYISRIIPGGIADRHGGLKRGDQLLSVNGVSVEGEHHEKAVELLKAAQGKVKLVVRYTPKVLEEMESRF

LIN7B, Q9HAP6 = molecular target: T2, LIN7B, Q9HAP6
T2 sequence (Q9HAP6 88-185, limits assumed, looked up): T1 sequence (Q9NUP9 88-185, limits assumed, looked up) with S2A, E13D, I35V, I40V, H65Q, K79S, K89R, S96A

HTRA3, P83110 = molecular target: T3, HTRA3, P83110
T3 sequence (P83110 354-453, limits assumed, looked up): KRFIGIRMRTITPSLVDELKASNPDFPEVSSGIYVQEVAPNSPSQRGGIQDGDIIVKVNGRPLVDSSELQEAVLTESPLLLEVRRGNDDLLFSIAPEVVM

DLG3_3, Q92796 = molecular target: T4, DLG3_3, Q92796
T4 sequence (Q92796 374-475, limits assumed, looked up): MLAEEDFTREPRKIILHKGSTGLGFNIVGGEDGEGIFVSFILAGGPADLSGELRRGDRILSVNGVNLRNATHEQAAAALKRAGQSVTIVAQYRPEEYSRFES

GRIP2_3, Q9C0E4 = molecular target: GRIP2_3, Q9C0E4
Sequence of GRIP2_3, Q9C0E4 (Q9C0E4 238-339): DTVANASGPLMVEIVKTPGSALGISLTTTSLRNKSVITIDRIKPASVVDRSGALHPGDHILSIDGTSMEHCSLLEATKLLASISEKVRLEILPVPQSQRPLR

Inadl_4, Q8NI35 = molecular target: Inadl_4, Q8NI35
Sequence of Inadl_4, Q8NI35 (Q8NI35 547-651): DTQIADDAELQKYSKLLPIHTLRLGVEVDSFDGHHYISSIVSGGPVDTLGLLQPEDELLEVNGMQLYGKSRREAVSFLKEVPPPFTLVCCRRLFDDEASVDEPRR

LNX1_2, Q8TBB1 = molecular target: LNX1_2, Q8TBB1
Sequence of LNX1_2, Q8TBB1 (Q8TBB1 371-470): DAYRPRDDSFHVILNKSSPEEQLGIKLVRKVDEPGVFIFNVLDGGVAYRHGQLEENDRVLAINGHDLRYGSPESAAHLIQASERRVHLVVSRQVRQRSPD

MAGI1_2, Q96QZ7 = molecular target: MAGI1_2, Q96QZ7
Sequence of MAGI1_2, Q96QZ7 (Q96QZ7 456-580): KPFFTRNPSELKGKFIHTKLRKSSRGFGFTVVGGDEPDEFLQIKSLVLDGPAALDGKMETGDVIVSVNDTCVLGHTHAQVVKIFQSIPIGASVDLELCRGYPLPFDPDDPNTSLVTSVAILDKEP

PARD3_3, Q8TEW0 = molecular target: PARD3_3, Q8TEW0
Sequence of PARD3_3, Q8TEW0 (Q8TEW0 582-685): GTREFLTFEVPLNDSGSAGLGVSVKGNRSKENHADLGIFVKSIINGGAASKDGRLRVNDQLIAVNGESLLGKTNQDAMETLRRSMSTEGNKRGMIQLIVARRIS

LNX1_3, Q8TBB1 = molecular target: LNX1_3, Q8TBB1
Sequence of LNX1_3, Q8TBB1 (Q8TBB1 500-596): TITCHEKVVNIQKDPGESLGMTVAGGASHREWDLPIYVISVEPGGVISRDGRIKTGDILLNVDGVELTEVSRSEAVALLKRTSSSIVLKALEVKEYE

MAGI3_2, Q5TCQ9 = molecular target: MAGI3_2, Q5TCQ9
Sequence of MAGI3_2, Q5TCQ9 (Q5TCQ9 398-503): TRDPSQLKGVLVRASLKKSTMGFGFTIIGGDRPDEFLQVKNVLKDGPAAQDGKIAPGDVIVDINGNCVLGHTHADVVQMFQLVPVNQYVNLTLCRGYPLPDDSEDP

NHERF3_3, Q5T2W1 = molecular target: T5, NHERF3_3, Q5T2W1
T5 sequence (Q5T2W1 238-333, limits assumed, looked up): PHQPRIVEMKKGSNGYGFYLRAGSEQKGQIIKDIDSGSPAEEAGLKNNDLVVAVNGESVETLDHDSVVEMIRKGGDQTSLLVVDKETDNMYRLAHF

GOPC, Q9HD26 = molecular target: GOPC, Q9HD26
Inadl_6, Q8NI35 = molecular target: Inadl_6, Q8NI35
Sequence of Inadl_6, Q8NI35 (Q8NI35 1058-1167): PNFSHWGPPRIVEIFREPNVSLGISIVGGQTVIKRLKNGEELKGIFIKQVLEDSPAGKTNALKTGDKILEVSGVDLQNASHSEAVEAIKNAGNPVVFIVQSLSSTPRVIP

SNTA1, Q13424 = molecular target: T6, SNTA1, Q13424
T6 sequence (Q13424 82-180, limits assumed, looked up): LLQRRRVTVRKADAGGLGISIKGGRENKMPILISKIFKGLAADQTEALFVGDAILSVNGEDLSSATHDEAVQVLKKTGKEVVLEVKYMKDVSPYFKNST

APBA1_2, Q02410 = molecular target: T7, APBA1_2, Q02410
T7 sequence (Q02410 742-832, limits assumed, looked up): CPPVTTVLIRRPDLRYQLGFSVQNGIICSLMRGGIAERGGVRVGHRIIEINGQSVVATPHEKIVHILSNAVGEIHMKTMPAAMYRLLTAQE

Inadl_10, Q8NI35 = molecular target: Inadl_10, Q8NI35
Sequence of Inadl_10, Q8NI35 (Q8NI35 1673-1763): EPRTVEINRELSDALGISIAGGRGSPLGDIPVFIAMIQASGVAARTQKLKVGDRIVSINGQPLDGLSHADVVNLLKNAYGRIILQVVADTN

GORASP1, Q9BQQ3 = molecular target: GORASP1, Q9BQQ3
Sequence of GORASP1, Q9BQQ3 (Q9BQQ3 1-208): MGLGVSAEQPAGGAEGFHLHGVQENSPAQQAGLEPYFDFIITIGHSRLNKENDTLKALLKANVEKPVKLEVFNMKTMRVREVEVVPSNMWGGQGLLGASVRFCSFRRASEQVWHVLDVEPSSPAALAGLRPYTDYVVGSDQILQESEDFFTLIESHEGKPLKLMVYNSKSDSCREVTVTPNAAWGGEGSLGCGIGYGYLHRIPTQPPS

FRMPD2_1, Q68DX3 = molecular target: FRMPD2_1, Q68DX3
Sequence of FRMPD2_1, Q68DX3 (Q68DX3 770-861): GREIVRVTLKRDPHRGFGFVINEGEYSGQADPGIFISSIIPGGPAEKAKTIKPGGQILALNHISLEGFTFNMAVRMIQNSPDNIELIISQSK

DLG4_3, P78352 = molecular target: DLG4_3, P78352
Sequence of DLG4_3, P78352 (P78352 306-403): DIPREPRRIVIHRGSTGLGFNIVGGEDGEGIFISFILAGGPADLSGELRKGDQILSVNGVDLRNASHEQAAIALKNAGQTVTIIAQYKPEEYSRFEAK

FRMPD2_2, Q68DX3 = molecular target: FRMPD2_2, Q68DX3
Sequence of FRMPD2_2, Q68DX3 (Q68DX3 944-1038): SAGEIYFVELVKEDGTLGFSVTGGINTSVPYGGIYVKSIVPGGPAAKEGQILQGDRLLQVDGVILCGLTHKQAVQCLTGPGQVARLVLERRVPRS

DLG1_1, Q12959 = molecular target: DLG1_1, Q12959
NHERF4_4, Q86UT5 = molecular target: NHERF4_4, Q86UT5
Sequence of NHERF4_4, Q86UT5 (Q86UT5 464-550): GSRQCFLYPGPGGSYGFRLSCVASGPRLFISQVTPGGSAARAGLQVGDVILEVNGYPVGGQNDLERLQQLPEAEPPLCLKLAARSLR

RHPN1, Q8TCX5 = molecular target: T8, RHPN1, Q8TCX5
T8 sequence (Q8TCX5 508-602, limits assumed, looked up): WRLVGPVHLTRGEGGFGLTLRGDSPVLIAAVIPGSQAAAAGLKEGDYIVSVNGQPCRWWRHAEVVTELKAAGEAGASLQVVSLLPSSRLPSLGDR

Inadl_1, Q8NI35 = molecular target: Inadl_1, Q8NI35
Sequence of Inadl_1, Q8NI35 (Q8NI35 113-229): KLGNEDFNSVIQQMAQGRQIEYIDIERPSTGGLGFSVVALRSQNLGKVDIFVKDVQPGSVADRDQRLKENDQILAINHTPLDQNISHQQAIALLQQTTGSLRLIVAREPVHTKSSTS

| Binder | pKd (MAGI2_3, Q86UL8) | pKd (FRMPD3, Q5JV73) | pKd (MAST2, Q6P0Q8) | pKd (DLG2_2, Q15700) | pKd (Inadl_8, Q8NI35) | pKd (ARHGEF12, Q9NZN5-2) | pKd (LIN7C, Q9NUP9) | pKd (LIN7B, Q9HAP6) | pKd (HTRA3, P83110) | pKd (DLG3_3, Q92796) | pKd (GRIP2_3, Q9C0E4) | pKd (Inadl_4, Q8NI35) | pKd (LNX1_2, Q8TBB1) | pKd (MAGI1_2, Q96QZ7) | pKd (PARD3_3, Q8TEW0) | pKd (LNX1_3, Q8TBB1) | pKd (MAGI3_2, Q5TCQ9) | pKd (NHERF3_3, Q5T2W1) | pKd (GOPC, Q9HD26) | pKd (Inadl_6, Q8NI35) | also measured |
| --- | --- | --- | --- | --- | --- | --- | --- | --- | --- | --- | --- | --- | --- | --- | --- | --- | --- | --- | --- | --- | --- |
| RSPVATATSC [DUSP5, Q16690] | below the threshold | below the threshold | 4.22 | below the threshold | below the threshold | 4.26 | below the threshold | 3.68 | 3.89 | below the threshold | below the threshold | below the threshold | below the threshold | below the threshold | below the threshold | below the threshold | below the threshold | below the threshold | below the threshold | below the threshold | pKd (SNTA1, Q13424): below the threshold; pKd (APBA1_2, Q02410): below the threshold; pKd (Inadl_10, Q8NI35): below the threshold; pKd (GORASP1, Q9BQQ3): below the threshold; pKd (FRMPD2_1, Q68DX3): below the threshold; pKd (DLG4_3, P78352): below the threshold; pKd (FRMPD2_2, Q68DX3): below the threshold; pKd (DLG1_1, Q12959): below the threshold; pKd (NHERF4_4, Q86UT5): below the threshold; pKd (RHPN1, Q8TCX5): below the threshold; pKd (Inadl_1, Q8NI35): below the threshold |
| PLPPEEESWV [GAS2L2, Q8NHY3] | 4.13 | 3.72 | 5.12 | 4.19 | 3.8 | below the threshold | 3.77 | 3.96 | 5.59 | below the threshold | below the threshold | below the threshold | 3.94 | below the threshold | 4.75 | below the threshold | 4.38 | below the threshold | below the threshold | 5.43 | pKd (SNTA1, Q13424): 4.6; pKd (APBA1_2, Q02410): 5.02; pKd (Inadl_10, Q8NI35): below the threshold; pKd (GORASP1, Q9BQQ3): 4.22; pKd (FRMPD2_1, Q68DX3): below the threshold; pKd (DLG4_3, P78352): below the threshold; pKd (FRMPD2_2, Q68DX3): 6.16; pKd (DLG1_1, Q12959): 4.25; pKd (NHERF4_4, Q86UT5): below the threshold; pKd (RHPN1, Q8TCX5): 4.43; pKd (Inadl_1, Q8NI35): 3.55 |
| STYCDYTIEI [FAM71C, Q8NEG0] | below the threshold | below the threshold | 5.12 | below the threshold | below the threshold | 3.76 | below the threshold | below the threshold | 4.08 | below the threshold | below the threshold | below the threshold | 4.35 | below the threshold | 5.15 | below the threshold | below the threshold | below the threshold | below the threshold | below the threshold | pKd (SNTA1, Q13424): below the threshold; pKd (APBA1_2, Q02410): below the threshold; pKd (Inadl_10, Q8NI35): below the threshold; pKd (GORASP1, Q9BQQ3): 4.72; pKd (FRMPD2_1, Q68DX3): below the threshold; pKd (DLG4_3, P78352): below the threshold; pKd (FRMPD2_2, Q68DX3): below the threshold; pKd (DLG1_1, Q12959): below the threshold; pKd (NHERF4_4, Q86UT5): 4.68; pKd (RHPN1, Q8TCX5): 3.47; pKd (Inadl_1, Q8NI35): 3.56 |
